Reference: FireProtDB (doi:10.1073/pnas.0911904107)

B1: Lipid A palmitoyltransferase PagP, P37001 (parent)
chain: MNVSKYVAIFSFVFIQLISVGKVFANADEWMTTFRENIAQTWQQPEHYDLYIPAITWHARFAYDKEKTDRYNERPWGGGFGLSRWDEKGNWHGLYAMAFKDSWNKWEPIAGYGWESTWRPLADENFHLGLGFTAGVTARDNWNYIPLPVLLPLASVGYGPVTFQMTYIPGTYNNGNVYFAWMRFQF

Variants of: B1
Settings: Escherichia coli (strain K12), pH 8, 25 °C, Urea, CD, structure 1THQ, whole UniProt chain shown
[1] = sodium phosphate buffer, transition: 2, reversible: yes
[2] = Sodium phosphate 50 mM, reversible: Yes

Variant | ddG of mutation (higher = less stable) [1] [kcal/mol] | denaturant midpoint (higher = more stable) [1] [M] | unfolding free energy [1] [kcal/mol] | ddG of mutation (higher = less stable) [2] [kcal/mol] | denaturant midpoint (higher = more stable) [2] [M] | unfolding free energy [2] [kcal/mol]
Y112G | 6.14 | 8.24 | 8.24 |  |  | 
M182A |  |  |  | 0.77 | 8.3 | 13.6
S155A | 6.38 | 8 | 8 | 1.27 | 8 | 13.1
W42A | 6.21 | 8.17 | 8.17 |  |  | 
D49N | 5.98 | 8.4 | 8.4 | 0.6 | 8.4 | 13.8
